Results on one molecule are retold here after patent US10293026B2, “Agent for preventing or treating demyelinating disease” (Osaka University, priority 2014, dated 2019).

Assay [1] has as its system oligodendrocyte precursor cells. Description: BrdU uptake by oligodendrocyte precursor cells with recombinant FGFs (Example 3). In kind it is cell-based, C57BL/6j mice. To be noted: FGF at 10, 30 or 100 ng/ml, vs saline control; FIG. 3. As for the experimental part:
Recombinant FGF15 (Abcam), FGF21 (R&D), or FGF23 (R&D) was diluted in saline solution immediately before use to prepare an each FGF-containing solution. Oligodendrocyte precursor cells were harvested from C57BL/6j mice (postnatal day 1-old) brains, as in Example 1.
Initially, the oligodendrocyte precursor cells were seeded in a poly-L-lysinde (Sigma)-coated plastic tissue culture dish, and cultured in the following medium for 1 day (37° C., 5% CO2). The medium used was DMEM containing 4 mM L-gludamine (Sigma), 1 mM sodium pyruvate (Sigma), 0.1% bovine serum albumin (Sigma), 50 μg/ml apo-Transferrin (Sigma), 5 μg/ml insulin (Sigma), 30 nM sodium selenite (Sigma), 10 nM biotin (Sigma), 10 nM hydrocortisone (Sigma), 10 ng/ml Platelet-Derived Growth Factor-AA (Peprotech), and 10 ng/ml basic fibroblast growth factor (Peprotech). Thereafter, each type of FGF-containing solution was added to the culture medium of oligodendrocyte precursor cells such that the concentration of each type of FGF was 10 ng/ml, 30 ng/ml, or 100 ng/ml, and the cells were cultured at 37° C. for 24 hours. BrdU was subsequently added and cultured at 37° C. for 24 hours, and then the cells were collected; the BrdU uptake was then detected using the cell proliferation ELISA, BrdU colorimetric kit (Roche). As a control, an equivalent amount of saline solution was used instead of the FGF21-containing solution, and the BrdU uptake was measured under the same conditions as those described above. This experiment studied three cases for each group.

Assay [2] has as its system oligodendrocyte precursor cells in brain contusion model mice. Briefly: PDGFRα and Ki67 double-positive cells in brain tissue of brain contusion model mice (Example 9). In kind it is in vivo, C57BL/6j mice. To be noted: continuous intraventricular administration 50 ng/kg body weight per day for 1 week, vs vehicle, FIG. 9. Here is the method:
Anesthetized C57BL/6j mice (female, 7-week-old) were fixed onto a brain stereotaxic apparatus (Narishige). A midline incision was made in the scalp, the fascia was removed, and the skull was exposed. A craniotomy was performed through a 4-mm diameter circle centered at 2 mm lateral to the bregma. A 3-mm diameter chip was connected to the Pneumatic Impact Device (AmScien Instruments) to create a brain contusion. The parameters for imparting impact were as follows: speed: […], depth: 1 mm, and duration: 120 msec.
Osmotic pumps (ALZET) were filled with an FGF21-containing solution prepared by diluting recombinant FGF21 (R&D) in saline solution. A cannula was attached to the tip of each osmotic pump, and the cannula tip was further connected to a Brain infusion kit (ALZET) to continuously administer the FGF21-containing solution into the ventricles. The FGF21-containing solution was administered for 1 week at a dose of 50 ng/kg body weight of FGF21 per day. […] The sections were immunostained using an anti-PDGFRα antibody and an anti-Ki67 antibody, and the number of PDGFRα and Ki67 double-positive cells in the sections was counted. As a control, a saline solution containing 0.5% BSA (Vehicle) was used, and the number of PDGFRα and Ki67 double-positive cells was counted under the same conditions as those described above. […]

Assay [3] deals with myelin sheath in demyelination model mice. Description: MBP positive regions in spinal cord of demyelination model mice (Example 6). In kind it is in vivo, C57BL/6j mice. The following applies: subcutaneous 500 ng/kg per day for 2 weeks from 7 days after lysophosphatidylcholine, one mouse per group, FIG. 6. As for the experimental part: Demyelination model mice were created as in Example 5 above. An FGF21-containing solution prepared by diluting recombinant FGF21 (R&D) in saline solution was subcutaneously administered for 2 weeks at a dose of 500 ng/kg body weight of FGF21 per day, to the demyelination model mice after 7 days from the administration of lysophosphatidylcholine. After 2 weeks, the demyelination model mice were anesthetized and transcardially perfused with saline solution, and spinal cord tissue was harvested. Sections were prepared from the harvested spinal cord tissue as in Example 5 above and then immunostained using an anti-MBP antibody, and MBP positive regions in the sections were counted. As a control, a saline solution containing 0.5% BSA was used, and MBP positive regions were counted under the same conditions as those described above. This experiment conducted the study using one mouse for each group.

Assay [4] concerns oligodendrocyte precursor cells in demyelination model mice. Briefly: PDGFRα and Ki67 double-positive cells in spinal cord of demyelination model mice, osmotic pump administration (Example 4). In kind it is in vivo, C57BL/6j mice. To be noted: continuous local administration by osmotic pump for 7 days, 350 ng in total, vs saline, p<0.05, FIG. 4. Here is the method: Demyelination model mice were produced by topically administering 2 μl per mouse of lysophosphatidylcholine diluted to 1% (w/v) in saline solution into the spinal cord of C57BL/6j mice (female, 7-week-old).
Osmotic pumps (ALZET) were filled with an FGF21-containing solution prepared by diluting recombinant FGF21 (R&D) to 4.17 μg/ml in saline solution, a cannula was attached to the tip of each pump, and the tip was attached to the site of lysophosphatidylcholine administration in each demyelination model mouse to continuously administer FGF21. After 7 days, the demyelination model mice were anesthetized and transcardially perfused with saline solution, and spinal cord tissue was harvested. Ultimately, 350 ng of FGF21 was administered. The spinal cord tissue was fixed with a 4% paraformaldehyde solution, which was then replaced with a 30% sucrose solution, and subsequently, frozen thin sections were prepared. The sections were immunostained using an anti-PDGFRα antibody and an anti-Ki67 antibody, and the number of PDGFRα and Ki67 double-positive cells in the sections was counted. PDGFRα is a marker for oligodendrocyte precursor cells, and Ki67 is a cell proliferation marker. As a control, saline solution was used, and the number of PDGFRα and Ki67 double-positive cells was counted under the same conditions as those described above. […]

For a further assay, the system named is demyelination model mice. Briefly: Ladder walk test of hindlimb motor function in demyelination model mice (Example 7). In kind it is in vivo, C57BL/6j mice. To be noted: FGF21 administered as in Example 5, FIG. 7. As for the experimental part:
Demyelination model mice were created, and recombinant FGF21 was administered, as in Example 5 above. The hindlimb motor function of the mice was examined by performing the ladder walk test. A 1-m long ladder was installed in a position at a height of 15 cm. The mice were allowed to walk on the ladder with random widths of 0.6, 1.2, and 1.8 cm. The number of missed steps was counted, and the proportion (%) of the number of missed steps relative to the total number of steps was calculated. This experiment conducted the study using three mice for each group.

B1: FGF21: Recombinant fibroblast growth factor 21 (R&D); the claimed active ingredient promoting oligodendrocyte precursor cell proliferation (protein, listed as Homo sapiens)
chain: MDSDETGFEHSGLWVSVLAGLLLGACQAHPIPDSSPLLQFGGQVRQRYLYTDDAQQTEAHLEIREDGTVGGAADQSPESLLQLKALKPGVIQILGVKTSRFLCQRPDGALYGSLHFDPEACSFRELLLEDGYNVYQSEAHGLPLHLPGNKSPHRDPAPRGPARFLPLPGLPPALPEPPGILAPQPPDVGSSDPLSMVGPSQGRSPSYAS
For the molecule B1, the “BrdU uptake by the oligodendrocyte precursor cells” value in assay [1] was “markedly increased”. Moreover, the “number of PDGFRα and Ki67 double-positive cells” value in assay [2] and in assay [4] was “increased” each time. Moreover, the MBP positive regions entry in assay [3] was “increased”. Also, in the assay on demyelination model mice, the “number of missed steps on the ladder” value is “decreased”.
